Measurements: US20130288373A1 (published 2013)

Tests used:
[1] = biological target: T1, Flt3D1-D5, recombinant human Flt3 ectodomain (residues 27-541) with C-terminal hexahistidine tag (human, UniProt P36888 27-541, N-linked glycosylation at 43, 100, 151, 306, 323, 351, 354, 473, 502 (at least partially occupied, by mass spectrometry)); assay: ITC at 37 C, Flt3 ectodomain titrated with FL; Flt3D1-D5 ectodomain
T1 construct: Secreted from HEK293T or HEK293S GnTI-/- cells and glycosylated; The secretion signal is not part of the mature protein; also called Flt3D15(27-541); Flt3D1-5
T1 sequence: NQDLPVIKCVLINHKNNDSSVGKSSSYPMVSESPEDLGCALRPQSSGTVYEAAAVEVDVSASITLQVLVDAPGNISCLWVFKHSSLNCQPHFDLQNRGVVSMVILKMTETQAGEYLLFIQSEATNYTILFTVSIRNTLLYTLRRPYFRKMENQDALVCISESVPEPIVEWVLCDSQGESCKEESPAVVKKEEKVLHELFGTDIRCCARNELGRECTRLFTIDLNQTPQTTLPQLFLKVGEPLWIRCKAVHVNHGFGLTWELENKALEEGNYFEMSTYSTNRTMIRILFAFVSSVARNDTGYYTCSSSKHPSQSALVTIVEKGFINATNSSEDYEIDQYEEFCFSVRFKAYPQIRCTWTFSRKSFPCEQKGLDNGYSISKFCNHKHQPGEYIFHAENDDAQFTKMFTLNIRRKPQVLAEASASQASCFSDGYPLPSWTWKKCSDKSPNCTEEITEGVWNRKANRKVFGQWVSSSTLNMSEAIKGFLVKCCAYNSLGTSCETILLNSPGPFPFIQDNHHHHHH
Procedure: (§1) Experiments were carried out using a VP-ITC MicroCalorimeter (MicroCal, MA) at 37° C., and data were analyzed using the Origin ITC analysis software package supplied by MicroCal. Purified recombinant Flt3 ectodomain constructs and FL were dialyzed overnight against 10 mM Tris-HCl, pH 7.4, at 4° C. Protein concentrations were measured spectrophotometrically at 280 nm using calculated theoretical extinction coefficients and all solutions were extensively degassed prior to use. The sample was stirred at a speed of 400 rpm throughout. The thermal titration data were fit to the “one binding site model”, and apparent molar reaction enthalpy (ΔH°), apparent entropy (ΔS°), association constant (Ka) and stoichiometry of binding (N) were determined. Several titrations were performed to evaluate reproducibility.
(§2) To quantify the thermodynamics, stoichiometry and affinity of extracellular complexes and to dissect the contribution of individual ectodomain modules to complex formation, isothermal titration calorimetry (ITC) was employed. This led to a number of consensus observations (FIG. 1D-F). […] Upon adjusting the Flt3 concentration to the approximate active receptor fraction (˜50%) estimated via the chromatographic elution profile of complex formation, a stoichiometry and thermodynamic signature consistent with that of the other two complexes is detected (FIG. 1F).

[2] = biological target: T2, Flt3D1-D4, recombinant human Flt3 ectodomain variant (residues 27-434) with C-terminal hexahistidine tag (human, UniProt P36888 27-434, N-linked glycosylation (glycosylated protein from HEK293 cells)); assay: ITC at 37 C, one binding site model
T2 construct: Secreted from HEK293T or HEK293S GnTI-/- cells and glycosylated; also called Flt3D14(27-434); Flt3D1-4
T2 sequence: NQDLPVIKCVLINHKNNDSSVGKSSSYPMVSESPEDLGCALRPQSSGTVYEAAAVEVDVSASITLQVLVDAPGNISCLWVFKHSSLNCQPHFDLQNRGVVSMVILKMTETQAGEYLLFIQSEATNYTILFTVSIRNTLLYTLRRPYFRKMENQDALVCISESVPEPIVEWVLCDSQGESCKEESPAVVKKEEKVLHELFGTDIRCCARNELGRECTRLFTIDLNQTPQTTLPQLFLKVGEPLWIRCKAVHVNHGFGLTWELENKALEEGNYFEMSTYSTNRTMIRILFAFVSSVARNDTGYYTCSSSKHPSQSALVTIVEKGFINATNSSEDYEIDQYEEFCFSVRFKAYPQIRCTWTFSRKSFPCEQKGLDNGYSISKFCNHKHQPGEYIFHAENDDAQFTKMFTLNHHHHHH
Procedure: as §1, §2

[3] = biological target: T1, Flt3D1-D5, recombinant human Flt3 …; assay: ITC at 37 C, one binding site model
Procedure: as §1, §2

[4] = biological target: T3, Flt3D1-D3, recombinant human Flt3 ectodomain variant (residues 27-346) with C-terminal hexahistidine tag (human, UniProt P36888 27-346, N-linked glycosylation (glycosylated protein from HEK293 cells)); assay: ITC at 37 C, Flt3 ectodomain titrated with FL; Flt3D1-D3 ectodomain; about 50% active receptor fraction
T3 construct: also called Flt3D13(27-346)
T3 sequence: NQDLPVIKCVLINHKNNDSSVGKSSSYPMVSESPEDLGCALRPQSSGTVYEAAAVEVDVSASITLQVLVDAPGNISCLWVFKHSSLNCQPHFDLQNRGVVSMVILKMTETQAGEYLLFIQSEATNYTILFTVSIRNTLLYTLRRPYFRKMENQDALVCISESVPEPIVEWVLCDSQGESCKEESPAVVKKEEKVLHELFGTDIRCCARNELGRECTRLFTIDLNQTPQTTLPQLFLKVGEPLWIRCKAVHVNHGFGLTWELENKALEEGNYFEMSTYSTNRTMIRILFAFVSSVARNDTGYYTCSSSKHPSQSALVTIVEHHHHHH
Procedure: as §1, §2

[5] = biological target: T2, Flt3D1-D4, recombinant human Flt3 …; assay: ITC at 37 C, Flt3 ectodomain titrated with FL; Flt3D1-D4 ectodomain
Procedure: as §1, §2

[6] = biological target: T3, Flt3D1-D3, recombinant human Flt3 …; assay: isothermal titration calorimetry at 37 °C, Flt3 ectodomain titrated with FL, one binding site model
Source text: (§3) (A-B) Isolation of Flt3D1-D5:FL and Flt3D1-D4:FL by size-exclusion chromatography (SEC). Also shown are Coomassie-stained SDS-PAGE strips corresponding to the peak fraction of the isolated complexes. The elution profiles of the complexes are characterized by large shifts to a single, faster migrating peak corresponding to the respective complex. (C) Size-exclusion chromatography on the Flt3D1-D3:FL mixture at the end of an ITC experiment, showing that a large amount of Flt3D1-D3 remains in the unbound form. Identical elution profiles were obtained in standard SEC experiments as well, in the presence of a large molar excess of FL. (D-F) Binding isotherms and thermodynamic parameters of FL binding to Flt3 ectodomains obtained by Isothermal Titration calorimetry (ITC). All experiments were performed by titrating recombinant Flt3 extracellular domains with FL.
as §1

[7] = biological target: T2, Flt3D1-D4, recombinant human Flt3 …; assay: as above
Source text: as §3, §1

[8] = biological target: T1, Flt3D1-D5, recombinant human Flt3 …; assay: as above
Source text: as §3, §1

[9] = biological target: T4, Flt3D1-D2, recombinant human Flt3 ectodomain variant (residues 27-244) with C-terminal hexahistidine tag (human, UniProt P36888 27-244, N-linked glycosylation (glycosylated protein from HEK293 cells)); assay: size-exclusion chromatography with FL
T4 construct: also called Flt3D12 (27-244)
T4 sequence: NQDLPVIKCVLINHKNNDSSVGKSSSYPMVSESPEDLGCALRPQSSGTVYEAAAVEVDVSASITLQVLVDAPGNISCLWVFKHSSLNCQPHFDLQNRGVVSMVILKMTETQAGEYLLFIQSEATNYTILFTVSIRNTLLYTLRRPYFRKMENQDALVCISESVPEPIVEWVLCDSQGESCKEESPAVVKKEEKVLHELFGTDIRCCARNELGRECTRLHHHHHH

[10] = biological target: T5, Flt3D1, recombinant human Flt3 ectodomain variant (residues 27-161) with C-terminal hexahistidine tag (human, UniProt P36888 27-161, N-linked glycosylation (glycosylated protein from HEK293 cells)); assay: size-exclusion chromatography with FL
T5 construct: also called Flt3D1(27-161)
T5 sequence: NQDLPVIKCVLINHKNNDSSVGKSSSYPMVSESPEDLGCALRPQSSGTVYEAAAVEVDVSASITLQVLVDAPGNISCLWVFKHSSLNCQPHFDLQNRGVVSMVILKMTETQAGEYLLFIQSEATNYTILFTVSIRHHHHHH

- Kd [1]: 8.7 nM
- stoichiometry of binding (N) [2]: 0.5
- stoichiometry of binding (N) [3]: 0.5
- Kd [4]: 70 nM
- Kd [5]: 40 nM
- Kd [6]: 74.6 nM
- N [6]: 0.121
- ΔH [6]: -24.9 kcal/mol
- ΔS [6]: -47.5 cal mol-1 K-1
- N [7]: 0.45
- ΔH [7]: -55.9 kcal/mol
- ΔS [7]: -146 cal mol-1 K-1
- N [8]: 0.42
- ΔH [8]: -51.7 kcal/mol
- ΔS [8]: -130 cal mol-1 K-1
- binding result [9]: no binding
- binding result [10]: no binding
B1: recombinant human FL (fms-like tyrosine kinase receptor-3 ligand) produced in E. coli (ligand)
chain: TQDCSFQHSPISSDFAVKIRELSDYLLQDYPVTVASNLQDEELCGGLWRLVLAQRWMERLKTVAGSKMQGLLERVNTEIHFVTKCAFQPPPSCLRFVQTNISRLLQETSEQLVALKPWITRQNFSRCLELQCQP
notes: Dimeric cytokine; also called Flt3 ligand; cognate ligand
